This data set concerns Escherichia coli TOP10. Put plainly: shrunken log2 fold change of peptide-encoding DNA abundance (4.5 h post-induction vs induction); higher = less antimicrobial activity (less host growth inhibition). The following applies: time post-induction: 4.5 h; library: site-saturation at positions 5, 18, 19, 20.
RRIRLRPPRLPRPRPRPFMMPRP: the “shrunken log2 fold change” value is -0.449.
With RRIRFRPPRLPRPRPRPVSQPRP the figure was 0.0413; with RRIRKRPPRLPRPRPRPNIRPRP, -0.0456.
For RRIRRRPPRLPRPRPRPDSVPRP, the “shrunken log2 fold change” value was 7.52e-05.
The value for RRIRARPPRLPRPRPRPLDDPRP was 0.875; that for RRIRGRPPRLPRPRPRPPNIPRP was 0.083.
RRIRSRPPRLPRPRPRPGCSPRP: the “shrunken log2 fold change” value was -0.115.
Consider RRIRARPPRLPRPRPRPQCTPRP, for which the “shrunken log2 fold change” value was -0.0222.
Regarding RRIRARPPRLPRPRPRPTWIPRP, the “shrunken log2 fold change” value is 0.291.
As to RRIRIRPPRLPRPRPRPSRGPRP, the “shrunken log2 fold change” value worked out at 0.242.
In the case of RRIRMRPPRLPRPRPRPHCQPRP, the “shrunken log2 fold change” value is -0.0624.
The value for RRIRDRPPRLPRPRPRPQSSPRP was 0.0176.
With RRIRERPPRLPRPRPRPSMLPRP the figure was -0.938.
With RRIRIRPPRLPRPRPRPLGIPRP the figure was 0.132; with RRIRMRPPRLPRPRPRPIGFPRP, -0.01.
Take RRIRERPPRLPRPRPRPEKLPRP: the “shrunken log2 fold change” value is -0.296.
With RRIRGRPPRLPRPRPRPMDPPRP the figure was 0.00995; with RRIRQRPPRLPRPRPRPNDFPRP, 0.0233; with RRIRPRPPRLPRPRPRPWTFPRP, -0.00547.
RRIRIRPPRLPRPRPRPVPDPRP: the “shrunken log2 fold change” value is -0.0498.
With RRIRARPPRLPRPRPRPEVVPRP the figure was 1.32; with RRIRIRPPRLPRPRPRPVTGPRP, -0.37; with RRIRRRPPRLPRPRPRPEMMPRP, 0.345.
For RRIRWRPPRLPRPRPRPIHNPRP, the “shrunken log2 fold change” value is -0.458.
With RRIRWRPPRLPRPRPRPKHCPRP the figure was 0.0806; with RRIRARPPRLPRPRPRPRVWPRP, 0.827.
With RRIRCRPPRLPRPRPRPIPFPRP the figure was -0.436.
With RRIRTRPPRLPRPRPRPSFFPRP, the “shrunken log2 fold change” value was -0.256.
Turning to RRIRQRPPRLPRPRPRPRTKPRP, the “shrunken log2 fold change” value worked out at 0.0706.
With RRIRERPPRLPRPRPRPIAVPRP the figure was 0.0116; with RRIRQRPPRLPRPRPRPSDVPRP, -0.0706; with RRIRPRPPRLPRPRPRPTFCPRP, 0.0727.
The value for RRIRWRPPRLPRPRPRPEETPRP was 0.0603; that for RRIRCRPPRLPRPRPRPGPYPRP was -0.385; that for RRIRTRPPRLPRPRPRPIYIPRP was -0.949.
The value for RRIRKRPPRLPRPRPRPDMWPRP was 0.245.
In the case of RRIRMRPPRLPRPRPRPMHEPRP, the “shrunken log2 fold change” value worked out at 3.07.
The value for RRIRFRPPRLPRPRPRPTNEPRP was -0.264; that for RRIRGRPPRLPRPRPRPWFWPRP was 0.6.
With RRIRYRPPRLPRPRPRPLFTPRP the figure was -0.962; with RRIRERPPRLPRPRPRPYKEPRP, -0.117.
RRIRIRPPRLPRPRPRPQQCPRP: the “shrunken log2 fold change” value is -0.211.
With RRIRERPPRLPRPRPRPVPSPRP the figure was -0.0655; with RRIRPRPPRLPRPRPRPHFWPRP, 0.482.
Turning to RRIRFRPPRLPRPRPRPLDIPRP, the “shrunken log2 fold change” value was -0.267.
In the case of RRIRIRPPRLPRPRPRPLGSPRP, the “shrunken log2 fold change” value was -0.41.
The value for RRIRARPPRLPRPRPRPNIQPRP was -0.122; that for RRIRGRPPRLPRPRPRPQTHPRP was 1.41.
With RRIRVRPPRLPRPRPRPYIQPRP the figure was -0.472.
As to RRIRERPPRLPRPRPRPFKCPRP, the “shrunken log2 fold change” value was -0.457.
As to RRIRQRPPRLPRPRPRPANNPRP, the “shrunken log2 fold change” value was -0.27.
Turning to RRIRWRPPRLPRPRPRPIMFPRP, the “shrunken log2 fold change” value was -0.189.
With RRIRLRPPRLPRPRPRPKKQPRP the figure was -0.046; with RRIRVRPPRLPRPRPRPTAWPRP, 0.145; with RRIRPRPPRLPRPRPRPATKPRP, 0.29.
With RRIRERPPRLPRPRPRPWVPPRP, the “shrunken log2 fold change” value was 0.0883.
With RRIRERPPRLPRPRPRPLSKPRP the figure was -0.579.
With RRIRPRPPRLPRPRPRPRLVPRP the figure was 0.323; with RRIRIRPPRLPRPRPRPYRWPRP, 0.0522.
On to RRIRKRPPRLPRPRPRPLFAPRP, for which the “shrunken log2 fold change” value came out at 0.594.
As to RRIRPRPPRLPRPRPRPPRFPRP, the “shrunken log2 fold change” value stood at 0.557.
The value for RRIRGRPPRLPRPRPRPRCEPRP was 0.782; that for RRIRPRPPRLPRPRPRPGYQPRP was -0.0523.
As for RRIRQRPPRLPRPRPRPMIYPRP, the “shrunken log2 fold change” value was -0.0652.
For the sequence RRIRHRPPRLPRPRPRPMEDPRP, the “shrunken log2 fold change” value stood at 0.0325.
Regarding RRIRSRPPRLPRPRPRPTWIPRP, the “shrunken log2 fold change” value was -0.38.
Turning to RRIRERPPRLPRPRPRPNWDPRP, the “shrunken log2 fold change” value was -0.125.
With RRIRRRPPRLPRPRPRPKEKPRP the figure was -0.00936.
The value for RRIRMRPPRLPRPRPRPFMIPRP was -0.0423; that for RRIRCRPPRLPRPRPRPNVVPRP was 0.0385; that for RRIRCRPPRLPRPRPRPRQAPRP was 0.00566.
With RRIRGRPPRLPRPRPRPATHPRP the figure was 0.862; with RRIRHRPPRLPRPRPRPGSTPRP, -0.681.
Turning to RRIRQRPPRLPRPRPRPTRCPRP, the “shrunken log2 fold change” value came out at 0.747.
For RRIRERPPRLPRPRPRPTVVPRP, the “shrunken log2 fold change” value is -0.188.
RRIRHRPPRLPRPRPRPHQWPRP: the “shrunken log2 fold change” value is -0.0218.
In the case of RRIRTRPPRLPRPRPRPKSEPRP, the “shrunken log2 fold change” value is -0.144.
Consider RRIRRRPPRLPRPRPRPNTKPRP, for which the “shrunken log2 fold change” value turned out to be 0.191.
With RRIRPRPPRLPRPRPRPIQRPRP, the “shrunken log2 fold change” value stood at 0.364.
Consider RRIRKRPPRLPRPRPRPVVSPRP, for which the “shrunken log2 fold change” value is -0.292.
In the case of RRIRCRPPRLPRPRPRPIENPRP, the “shrunken log2 fold change” value is -0.209.
With RRIRMRPPRLPRPRPRPRCNPRP the figure was 0.105; with RRIRWRPPRLPRPRPRPFAQPRP, -0.0369.
RRIRWRPPRLPRPRPRPECHPRP: the “shrunken log2 fold change” value worked out at 0.563.
RRIRMRPPRLPRPRPRPMFFPRP: the “shrunken log2 fold change” value is -0.0106.
With RRIRDRPPRLPRPRPRPKALPRP the figure was -0.00674; with RRIRSRPPRLPRPRPRPDHVPRP, -0.0207; with RRIRCRPPRLPRPRPRPLKWPRP, -0.0792.
RRIRMRPPRLPRPRPRPAVIPRP: the “shrunken log2 fold change” value was -0.1.
The value for RRIRLRPPRLPRPRPRPIWRPRP was 0.102; that for RRIRFRPPRLPRPRPRPWQNPRP was -0.00226.
RRIRKRPPRLPRPRPRPAGCPRP: the “shrunken log2 fold change” value came out at 0.702.
Turning to RRIRIRPPRLPRPRPRPRSLPRP, the “shrunken log2 fold change” value was -0.036.
The value for RRIRMRPPRLPRPRPRPNKPPRP was -0.0387.
In the case of RRIRRRPPRLPRPRPRPKEPPRP, the “shrunken log2 fold change” value worked out at 0.293.
The value for RRIRSRPPRLPRPRPRPEITPRP was -0.13; that for RRIRFRPPRLPRPRPRPSMTPRP was -0.227.
On to RRIRCRPPRLPRPRPRPFIVPRP, for which the “shrunken log2 fold change” value is -0.575.
The value for RRIRNRPPRLPRPRPRPCLEPRP was 0.000258.
Regarding RRIRARPPRLPRPRPRPAVGPRP, the “shrunken log2 fold change” value came to 0.512.
With RRIRPRPPRLPRPRPRPKFIPRP the figure was -0.308.
For the sequence RRIRFRPPRLPRPRPRPAVVPRP, the “shrunken log2 fold change” value was -0.231.
The value for RRIRFRPPRLPRPRPRPMEQPRP was -0.00146; that for RRIRCRPPRLPRPRPRPPHKPRP was 0.68; that for RRIRARPPRLPRPRPRPFWYPRP was -0.181.
Take RRIRWRPPRLPRPRPRPKPHPRP: the “shrunken log2 fold change” value is 0.351.
Consider RRIRFRPPRLPRPRPRPKQIPRP, for which the “shrunken log2 fold change” value is -0.218.
Turning to RRIRERPPRLPRPRPRPYNEPRP, the “shrunken log2 fold change” value is -0.178.
In the case of RRIRARPPRLPRPRPRPRWRPRP, the “shrunken log2 fold change” value is 0.934.
For RRIRVRPPRLPRPRPRPVRGPRP, the “shrunken log2 fold change” value stood at 0.767.
The value for RRIRGRPPRLPRPRPRPSIKPRP was 0.47.
With RRIRTRPPRLPRPRPRPNNIPRP the figure was -0.695; with RRIRSRPPRLPRPRPRPFLFPRP, -0.329; with RRIRMRPPRLPRPRPRPPPCPRP, 1.73.
As to RRIRHRPPRLPRPRPRPVAYPRP, the “shrunken log2 fold change” value is -0.332.
With RRIRYRPPRLPRPRPRPFIDPRP the figure was -0.018; with RRIRMRPPRLPRPRPRPIVWPRP, -0.0994; with RRIRLRPPRLPRPRPRPVGEPRP, 0.12.
Take RRIRVRPPRLPRPRPRPDIDPRP: the “shrunken log2 fold change” value was -0.205.
With RRIRMRPPRLPRPRPRPRTYPRP the figure was -0.00485; with RRIRLRPPRLPRPRPRPKYVPRP, -0.126; with RRIRMRPPRLPRPRPRPGGIPRP, 0.545.
With RRIRIRPPRLPRPRPRPCEVPRP the figure was 0.0421; with RRIRVRPPRLPRPRPRPEMMPRP, 0.0629.
With RRIRSRPPRLPRPRPRPDQPPRP the figure was 0.0272.

Values taken from the supplement of paper PMC9112550, “Optimization of the antimicrobial peptide Bac7 by deep mutational scanning” (BMC Biology, 2022).
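Note: peptides expressed intracellularly from a pBAD plasmid library in pooled LB shake-flask culture, induced with 0.3% L-arabinose, DNA abundance read by NGS, three biological replicates, DESeq2 with apeglm shrinkage.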
